Laboratory results published in paper PMC6002859.

Target: Plk1 (UniProt P53350)
Assay: Myc-PP6R2 IP, Plk1 Western blot
Details: reference: wild type; sites S771

## PP6R2 (SAPS2) (from UniProt O75170) S771A (PBD2 mutant)
  binding against the reference: lost
